In patent US20030157712A1, “Methods for determining cell responses through EphB receptors” (priority 1997, published 2003):

System: human renal microvascular endothelial cells
Assay: Solid phase cell attachment assay (HRMEC)
Type: cell-based
Protocol: Solid phase cell attachment assays. Forty-eight-well plates (Falcon) were coated with a layer of nitrocellulose (Schleicher & Schuell) and allowed to air dry as described (47). Coated wells were incubated overnight at 4° C. with PBS containing matrix proteins at the indicated concentrations alone (no addition, NA) or in combination with dimeric EphrinB1/Fc. Two hours prior to assay, wells were washed twice then blocked at 37° C. with 1% BSA. Serum starved cells were harvested in 2 mM EDTA in PBS (HEK293) or recovered by trypsinization (HRMEC), washed twice in serum free medium containing 1% BSA, then plated at a density of 0.7-1×10^5 cells per well. After incubation at 37° C. for 1 hour (or as specified), unattached cells were dislodged by 5 brisk slaps of the plate on a horizontal surface. Wells were gently washed with PBS until cells were not adherent to albumin-coated wells. Adherent cells were fixed with 2% glutaraldehyde, stained with 0.5% crystal violet (in EtOH), and quantified by OD reading at 570 nm. In experiments using competitive peptides or blocking antibodies, cells were preincubated with the indicated peptides (100 μM) or antibodies (10 μg/ml) for 15 min at RT before plating. Results representative of three independent experiments are given as OD values and represent the mean of duplicate or triplicate wells±SEM.
To determine if this ephrin-B1 surface density effect was mediated through integrins, a defined RGD peptide, GRGDSPK (SEQ ID NO:3), was applied to the surfaces in the absence and presence of ephrin-B1/Fc, or IgG1. Attachment assays of serum-starved microvascular endothelial cells to GRGDSPK (SEQ ID NO:3)-coated 48-well-plates were performed as described herein. Cells were preincubated for 15 min at 22° C. with blocking peptides (100 uM) or anti-integrin antibodies (10 ug/ml) before plating. Similar results were obtained using fibrinogen (1 ug/cm^2). HEK293 cells were transiently transfected with pSRα-EphB1 and attachment assays were performed after 48 hours as described herein.

[1] = fibrinogen-coated nitrocellulose surfaces

B1: ephrin-B1/Fc dimers: disulfide-linked immunoglobulin Fc fusion form of ephrin-B1 (protein)
chain: LAKNLEPVSWSSLNPKFLSGKGLVIYPKIGDKLDIICPRAEAGRPYEYYKLYLVRPEQAAACSTVLDPNVLVTCNRPEQEIRFTIKFQEFSPNYMGLEFKKHHDYYITSTSNGSLEGLENREGGVCRTRTMKIIMKVGQDPNAVTPEQLTTSRPSKEADNTVKMATQAPGSRGSLGDSDGKHETVNQEEKSGPGASGGSSGDPDGFFNSK
modifications: left off: a dimerising Fc or GST
**Q.** What does the source list for B1?
**A.** endothelial cell attachment, plates pre-coated using standard procedures (alone or in the presence of fibrinogen, no nitrocellulose): did not promote cell attachment; cell attachment at densities higher than 300 ng/cm^2 [1]: sharp decline; coating density evoking maximal cell attachment [1]: 300 ng/cm^2; endothelial attachment, ligand adsorbed to nitrocellulose-coated surfaces (non-denaturing conditions, with fibrinogen, compared with Fc control human IgG1): promoted endothelial attachment
